Experimental data taken from the Human Domainome abundance scans (Beltran et al. 2025).
± gives the uncertainty stated by the source.

B1: Tumor protein 63, residues 545 to 610; numbered along this chain, Q9H3D4 (parent)
chain: TDCSIVSFLARLGCSSCLDYFTTQGLTTIYQIEHYSMDDLASLKIPEQFRHAIWKGILDHRQLHEF

Variants of: B1
Assay: abundance fitness (aPCA) (normalised: wild type 0, dead -1); higher = more abundant; growth selection in yeast, the domain comes from the species named
Settings: Homo sapiens
TDCSIVSPLARLGCSSCLDYFTTQGLTTIYQIEHYSMDDLASLKIPEQFRHAIWKGILDHRQLHEF gave an abundance fitness of -0.938 ± 0.091.
Variant TDCSIVSELARLGCSSCLDYFTTQGLTTIYQIEHYSMDDLASLKIPEQFRHAIWKGILDHRQLHEF has an abundance fitness of -0.711 ± 0.056.
Variant TDCSIVSWLARLGCSSCLDYFTTQGLTTIYQIEHYSMDDLASLKIPEQFRHAIWKGILDHRQLHEF has an abundance fitness of -0.024 ± 0.041.
Variant TDCSIVSNLARLGCSSCLDYFTTQGLTTIYQIEHYSMDDLASLKIPEQFRHAIWKGILDHRQLHEF has an abundance fitness of -0.796 ± 0.069.
TDCSIVSTLARLGCSSCLDYFTTQGLTTIYQIEHYSMDDLASLKIPEQFRHAIWKGILDHRQLHEF showed an abundance fitness of -0.592 ± 0.05.
TDCSIVSGLARLGCSSCLDYFTTQGLTTIYQIEHYSMDDLASLKIPEQFRHAIWKGILDHRQLHEF gave an abundance fitness of -1.01 ± 0.084.
With TDCSIVSILARLGCSSCLDYFTTQGLTTIYQIEHYSMDDLASLKIPEQFRHAIWKGILDHRQLHEF the abundance fitness was -0.272 ± 0.019.
TDCSIVSCLARLGCSSCLDYFTTQGLTTIYQIEHYSMDDLASLKIPEQFRHAIWKGILDHRQLHEF gave an abundance fitness of -0.583 ± 0.12.
For TDCSIVSALARLGCSSCLDYFTTQGLTTIYQIEHYSMDDLASLKIPEQFRHAIWKGILDHRQLHEF, the abundance fitness was -0.58 ± 0.034.
Variant TDCSIVSYLARLGCSSCLDYFTTQGLTTIYQIEHYSMDDLASLKIPEQFRHAIWKGILDHRQLHEF has an abundance fitness of -0.329 ± 0.048.
With TDCSIVSHLARLGCSSCLDYFTTQGLTTIYQIEHYSMDDLASLKIPEQFRHAIWKGILDHRQLHEF the abundance fitness was -0.41 ± 0.14.
TDCSIVSQLARLGCSSCLDYFTTQGLTTIYQIEHYSMDDLASLKIPEQFRHAIWKGILDHRQLHEF showed an abundance fitness of -0.835 ± 0.064.
For TDCSIVSKLARLGCSSCLDYFTTQGLTTIYQIEHYSMDDLASLKIPEQFRHAIWKGILDHRQLHEF, the abundance fitness was -0.961 ± 0.19.
Work on TDCSIVSSLARLGCSSCLDYFTTQGLTTIYQIEHYSMDDLASLKIPEQFRHAIWKGILDHRQLHEF yielded an abundance fitness of -0.822 ± 0.044.
Work on TDCSIVSRLARLGCSSCLDYFTTQGLTTIYQIEHYSMDDLASLKIPEQFRHAIWKGILDHRQLHEF yielded an abundance fitness of -0.918 ± 0.079.
With TDCSIVSMLARLGCSSCLDYFTTQGLTTIYQIEHYSMDDLASLKIPEQFRHAIWKGILDHRQLHEF the abundance fitness was -0.029 ± 0.027.
With TDCSIVSLLARLGCSSCLDYFTTQGLTTIYQIEHYSMDDLASLKIPEQFRHAIWKGILDHRQLHEF the abundance fitness was -0.052 ± 0.022.
For TDCSIVKFLARLGCSSCLDYFTTQGLTTIYQIEHYSMDDLASLKIPEQFRHAIWKGILDHRQLHEF, the abundance fitness was -0.028 ± 0.031.
Work on TDCSIVCFLARLGCSSCLDYFTTQGLTTIYQIEHYSMDDLASLKIPEQFRHAIWKGILDHRQLHEF yielded an abundance fitness of -0.026 ± 0.047.
For TDCSIVHFLARLGCSSCLDYFTTQGLTTIYQIEHYSMDDLASLKIPEQFRHAIWKGILDHRQLHEF, the abundance fitness was -0.069 ± 0.03.
TDCSIVWFLARLGCSSCLDYFTTQGLTTIYQIEHYSMDDLASLKIPEQFRHAIWKGILDHRQLHEF gave an abundance fitness of -0.132 ± 0.027.
TDCSIVMFLARLGCSSCLDYFTTQGLTTIYQIEHYSMDDLASLKIPEQFRHAIWKGILDHRQLHEF gave an abundance fitness of -0.108 ± 0.036.
In the case of TDCSIVYFLARLGCSSCLDYFTTQGLTTIYQIEHYSMDDLASLKIPEQFRHAIWKGILDHRQLHEF, the abundance fitness is reported as -0.053 ± 0.041.
With TDCSIVNFLARLGCSSCLDYFTTQGLTTIYQIEHYSMDDLASLKIPEQFRHAIWKGILDHRQLHEF the abundance fitness was -0.006 ± 0.032.
TDCSIVRFLARLGCSSCLDYFTTQGLTTIYQIEHYSMDDLASLKIPEQFRHAIWKGILDHRQLHEF gave an abundance fitness of -0.086 ± 0.02.
For TDCSIVEFLARLGCSSCLDYFTTQGLTTIYQIEHYSMDDLASLKIPEQFRHAIWKGILDHRQLHEF, the abundance fitness was -0.024 ± 0.041.
Work on TDCSIVIFLARLGCSSCLDYFTTQGLTTIYQIEHYSMDDLASLKIPEQFRHAIWKGILDHRQLHEF yielded an abundance fitness of -0.234 ± 0.064.
In the case of TDCSIVPFLARLGCSSCLDYFTTQGLTTIYQIEHYSMDDLASLKIPEQFRHAIWKGILDHRQLHEF, the abundance fitness is reported as -0.113 ± 0.036.
TDCSIVLFLARLGCSSCLDYFTTQGLTTIYQIEHYSMDDLASLKIPEQFRHAIWKGILDHRQLHEF gave an abundance fitness of -0.137 ± 0.027.
Variant TDCSIVGFLARLGCSSCLDYFTTQGLTTIYQIEHYSMDDLASLKIPEQFRHAIWKGILDHRQLHEF has an abundance fitness of -0.045 ± 0.025.
With TDCSIVDFLARLGCSSCLDYFTTQGLTTIYQIEHYSMDDLASLKIPEQFRHAIWKGILDHRQLHEF the abundance fitness was -0.056 ± 0.047.
With TDCSIVTFLARLGCSSCLDYFTTQGLTTIYQIEHYSMDDLASLKIPEQFRHAIWKGILDHRQLHEF the abundance fitness was -0.012 ± 0.031.
In the case of TDCSIVQFLARLGCSSCLDYFTTQGLTTIYQIEHYSMDDLASLKIPEQFRHAIWKGILDHRQLHEF, the abundance fitness is reported as -0.067 ± 0.031.
Variant TDCSIVFFLARLGCSSCLDYFTTQGLTTIYQIEHYSMDDLASLKIPEQFRHAIWKGILDHRQLHEF has an abundance fitness of -0.082 ± 0.042.
For TDCSIVSFLACLGCSSCLDYFTTQGLTTIYQIEHYSMDDLASLKIPEQFRHAIWKGILDHRQLHEF, the abundance fitness was -0.155 ± 0.035.
TDCSIVSFLWRLGCSSCLDYFTTQGLTTIYQIEHYSMDDLASLKIPEQFRHAIWKGILDHRQLHEF gave an abundance fitness of -0.18 ± 0.054.
TDCSIVSFLVRLGCSSCLDYFTTQGLTTIYQIEHYSMDDLASLKIPEQFRHAIWKGILDHRQLHEF showed an abundance fitness of -0.15 ± 0.039.
Variant TDCSIVSFLDRLGCSSCLDYFTTQGLTTIYQIEHYSMDDLASLKIPEQFRHAIWKGILDHRQLHEF has an abundance fitness of -0.145 ± 0.033.
TDCSIVSFLGRLGCSSCLDYFTTQGLTTIYQIEHYSMDDLASLKIPEQFRHAIWKGILDHRQLHEF showed an abundance fitness of -0.1 ± 0.035.
With TDCSIVSFLQRLGCSSCLDYFTTQGLTTIYQIEHYSMDDLASLKIPEQFRHAIWKGILDHRQLHEF the abundance fitness was -0.15 ± 0.27.
For TDCSIVSFLNRLGCSSCLDYFTTQGLTTIYQIEHYSMDDLASLKIPEQFRHAIWKGILDHRQLHEF, the abundance fitness was -0.146 ± 0.054.
